In paper doi:10.1101/2020.06.17.153486:

How the values were obtained:
[1] = molecular target: SARS-CoV-2 spike trimer (S trimer), soluble ectodomain (SARS-CoV-2) (UniProt P0DTC2); assay: cryo-EM structure
[2] = molecular target: SARS-CoV-2 spike trimer (S trimer), soluble ectodomain (SARS-CoV-2, Wuhan-Hu-1 type); assay: cryo-EM structure

| Substance | stoichiometry N (Fab per trimer) [1] | stoichiometry N (Fab per trimer) [2] |
| --- | --- | --- |
| 2-43 Fab | 3 |  |
| 4-8 Fab |  | 3 |
